Common to all, as to type: cell-based, human
One test deals with CD4^+ T-cells. The test is described as follows: IFN-γ ELISPOT assay of peptide-primed CD4+ T-cells. To be noted: T-cells prestimulated with p45-59; autologous and allogeneic DC. As to the method:
PBMC from patients were isolated by Ficoll-Paque™ PLUS separation (Amersham Pharmacia Biotech AB, Uppsala, Sweden). For in-vitro priming, 1×10^7 and 2×10^6 unseparated PBMC, respectively, were suspended in 500 μl serum-free medium (X-Vivo 15 (Biowhittaker Europe s.p.r.l., Verviers, Belgium) supplemented with 2 mM L-glutamine (Gibco) and 1% penicillin/streptomycin (Gibco). For pulsing, the pool of the 3 SSX2-derived peptides (each at a concentration of 2 μg/ml) was added to the suspension of 1×10^7 cells, while the suspension of 2×10^6 PBMC was pulsed with the mix of 7 peptides (each at 2 μg/ml) derived from the pp65 antigen of the human CMV. Pulsing was performed for 90-120 minutes at 37° C. Thereafter the pulsed cells were washed once with serum-free medium and suspended for cultivation in X-Vivo 15 T-cell medium (Biowhittaker) supplemented with 10% human AB serum (Biowhittaker) and 6.7 ng/ml IL-7 (R&D systems). The 1×10^7 SSX2-pulsed PBMC were suspended in 3.75 ml T-cell medium and plated into 5 wells (0.75 ml/well) of a 48-well Nuncclone™ plate (Nunc GmbH & Co KG.). The 2×10^6 pp65-pulsed PBMC were plated into 1 well (0.75 ml). The remaining PBMC from the patients or donors, respectively, were divided into at least 3 aliquots of 1×10^7 PBMC and frozen until used for restimulation and in the T-cell assays. The peptide-pulsed PBMC which served both as APC and as a source for the T-cells to be used in the ELISPOT assay, were cultured at 37° C. One day after the stimulation was started, each well was supplemented with 250 μl X-Vivo 15 medium supplemented with 80 U/ml IL-2 (R&D Systems) resulting in a final concentration of 20 U/ml IL-2. The cells were incubated for 6 days under occasional microscopic control. On day 7 and before each ELISPOT assay, respectively, the percentage of CD4^+ T-cells in the culture well was determined. On day 7, cells were restimulated with autologous PBMC that had been pulsed with the appropriate peptides under the same conditions as described for day 0/1 at a CD4^+/APC ratio of 1:1. On day 14, the first ELISPOT assay was performed. To this end, the cultured cells were harvested from the respective wells and the primed CD4^+ cells were used as effectors in the ELISPOT assay. The remaining cells were restimulated once more using conditions as described before. […] no specific reactivity was shown by day 21, the stimulation was repeated weekly until all CD4^+ cells were consumed.
At least three IFN-γ ELISPOT assays were performed on days 14, 21 and 28, respectively. All tests were run in triplicates in order to determine mean values and standard deviations. Assays were performed in nitrocellulose-lined 96-well plates (MAHA S45 by Millipore, Bedford Mass., USA). The wells were pre-coated overnight with PBS (50 μl/well) containing an anti-IFN-γ capture antibody at the dilution recommended in the supplier's instructions (Mabtech AB, Nacka, Sweden). To block unspecific binding, the wells were then incubated with 10% human AB^+ serum for 1 h at 37° C. For the priming of effector cells, 2.5×10^4 CD4^+ T-cell were harvested, washed once to remove the cytokines, and were tested for specific recognition of the corresponding antigen. To this end, peptide-primed CD4^+ cells were harvested, washed once to remove cytokines, resuspended, and 50 μl of the cell suspension in X-Vivo 15 medium were added to each well. […]

The next test has as its system T cells. The test is described as follows: BrdU proliferation assay of T cells with peptide or protein loaded autologous dendritic cells. As for the experimental part: The peptides were then combined with autologous dendritic cells. These were obtained by isolating peripheral blood mononuclear cells (“PBMCs”), from HLA-DR+donors, using Ficoll-Hypaque methods. These PBMCs were then incubated for 1-2 hours at 37° C., on plastic surfaces. Adherent monocytes were then cultured for 5 days in medium that had been supplemented with interleukin-4 (IL-4) and GM-CSF. To elaborate, AIMV medium supplemented with 1000 U/ml of IL-4, and 1000 U/ml of GM-CSF was used. This incubation stimulates differentiation into dendritic cells.
Samples of dendritic cells (8×10^5) were then loaded with 50 μg/ml of […] added peptide. The loading proceeded for 2 hours, at 37° C., in medium supplemented with 1000 U/ml of TNF-α and 10,000 U/ml of IL-1β. Peptide pulsed dendritic cells were then washed twice, in excess peptide free medium. Then, autologous peripheral blood lymphocytes (4×10^7) were combined with 8×10^5 peptide loaded dendritic cells (ratio of 50:1), in medium which contained 5 ng/ml of IL-7 and 20 U/ml of IL-2. Incubation was carried out at 37° C.
Cultures were restimulated weekly with peptide loaded, irradiated PBMCs.
The ability of the peptides to form complexes with HLA-DR molecules and to stimulate CD4^+ cell proliferation was determined by measuring BrdU uptake.
The specificity of the resulting CD4^+ cells was then tested by combing them with autologous dendritic cells that had been loaded with peptide, admixed with full length recombinant SSX-2 protein, or with an unrelated protein.
The results presented in Example 4 led to additional experiments using T cells that had been isolated from two donors using standard protocols. In these experiments, autologous dendritic cells were prepared, as described, and combined with T cells whose proliferation was determined in a BrdU assay. […] The SSX-2 full length molecule provoked just slightly less than 60% proliferation, while the peptide mixture provoked about 85% proliferation.

For test [1], the system named is SSX-2 37-51 specific DR3 restricted CD4+ T cells. In words: Recognition of recombinant protein loaded EBV cells, IFN-γ ELISA. The conditions noted are these: FIG. 9C, FIG. 10C. As for the experimental part: For intracellular cytokine secretion detection, T cells were stimulated in the absence or in the presence of peptides at the indicated dose during 4 h as described previously (Ayyoub M, et al., J Clin Invest., 2004; 113 (8): 1225-33, see examples above). One hour after the beginning of the incubation, Brefeldin A ([…], Sigma) was added to inhibit cytokine secretion. After incubation, cells were stained with anti-CD4 mAb (BD Biosciences, San Diego, Calif.) for 20 min at 4° C. and fixed using formaldehyde, permeabilized with saponine (Sigma, 0.1% in PBS 5% FCS), stained with anti IFN-γ mAb (BD Biosciences) and analyzed by flow cytometry. Data analysis was performed using Cell Quest software. IFN-γ secretion was assessed as described (Ayyoub M, et al., J Clin Invest., 2004; 113 (8): 1225-33). T cells (10,000/well) and EBV transformed B cells (EBV) used as antigen-presenting cells (APC, 10,000/well) were incubated in the absence or in the presence of peptides at the indicated dose in 96-well round-bottom plates in […] of medium. In some experiments tumor cells were used as APC. […] After 24 h incubation at 37° C., culture supernants were collected and the content of IFN-g determined by ELISA (BioSource International, Camarillo, Calif., USA). […]
(An ELISA detects its analyte on a solid surface through an enzyme-linked reagent.)

This note sets out measurements from patent publication US7989587B2, “SSX-2 peptides presented by HLA class II molecules” (Ludwig Institute for Cancer Research Ltd., priority 1999, dated 2011).

B1: SSX-2 full length molecule: full length recombinant SSX-2 protein (protein, UniProt Q16385 1-188, looked up)
chain: MNGDDAFARRPTVGAQIPEKIQKAFDDIAKYFSKEEWEKMKASEKIFYVYMKRKYEAMTKLGFKATLPPFMCNKRAEDFQGNDLDNDPNRGNQVERPQMTFGRLQGISPKIMPKKPAEEGNDSEEVPEASGPQNDGKELCPPGKPTTSEKIHERSGPKRGEHAWTHRLRERKQLVIYEEISDPEEDDE
modifications: full-length
notes: full length recombinant SSX-2 protein
For B1, in the test on CD4^+ T-cells, the “T-cell response to dendritic cells pulsed with whole protein” value is recorded as “induced a significant T-cell response”. Further, in the test on T cells (first set of experiments, mixture of the 5 peptides of Example 4 compared to equal amount of protein), the proliferation entry is given as “less than 60%”. In addition, in the test on T cells (six individual experiments, versus other peptides or TALL), the “T cell proliferation induced by pulsed dendritic cells” value is given as “greater T cell proliferation”. The “processing and presentation of recombinant protein by DR3+ EBV cells, recognition by specific CD4+ T cells” value in test [1] is “efficiently process”.
